Reference: paper PMC4027202

Tests used:
[1] = biological target: T1, Toscana virus nucleoprotein N (Toscana virus, UniProt P21701 1-253); assay: ITC; n=0.40; ITC: 20 mM Tris pH 7.5, 150 mM NaCl, 8 C; 400 uM RNA titrated into 30 uM apo N; conditions: protein: recombinant; tags: N-terminal His6; chain copies: 6; single strand
T1 sequence: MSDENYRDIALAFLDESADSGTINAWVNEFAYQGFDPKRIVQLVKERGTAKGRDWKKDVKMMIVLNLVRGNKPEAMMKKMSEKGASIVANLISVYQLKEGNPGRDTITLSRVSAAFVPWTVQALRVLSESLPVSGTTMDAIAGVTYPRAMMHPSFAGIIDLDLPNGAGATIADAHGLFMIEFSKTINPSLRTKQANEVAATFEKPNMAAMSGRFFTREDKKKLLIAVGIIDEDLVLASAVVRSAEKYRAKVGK

RVFV nucleoprotein N = biological target: T2, RVFV nucleoprotein N (Rift Valley fever virus, UniProt D3K5I7 1-245); assay: ITC; n=0.70; main text gives 420 nM; ITC: 20 mM Tris pH 7.5, 150 mM NaCl, 8 C; […]; conditions: protein: recombinant; single strand
T2 sequence: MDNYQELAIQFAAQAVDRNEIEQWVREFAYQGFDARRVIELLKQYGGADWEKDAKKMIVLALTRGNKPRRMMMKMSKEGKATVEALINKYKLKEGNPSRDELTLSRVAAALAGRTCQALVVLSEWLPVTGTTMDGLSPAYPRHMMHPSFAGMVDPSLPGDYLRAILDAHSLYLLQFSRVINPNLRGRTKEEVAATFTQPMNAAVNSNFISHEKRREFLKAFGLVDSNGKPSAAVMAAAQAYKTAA

[2] = biological target: T1, Toscana virus nucleoprotein N; assay: ITC; n=0.49; ITC: 20 mM Tris pH 7.5, 150 mM NaCl, 8 C; 400 uM RNA titrated into 30 uM apo N; conditions: protein: recombinant; tags: N-terminal His6; chain copies: 6; single strand
[3] = biological target: the molecule itself; assay: crystal structure; apo (RNA-free) N; 6.5% PEG 3350, 0.1-M sodium malonate, pH 4.5-5.2; space group P6, 12 molecules in the asymmetric unit, 3.3 Å
[4] = biological target: the molecule itself; assay: crystal structure; N reconstituted with 9-mer RNA oligo1 (UGUGUUUCU); 11% PEG 3350, 0.1-M sodium malonate, pH 4.5-5.2; space group P1, 24 N and 12 RNA in the asymmetric unit, 2.6 Å
[5] = biological target: T1, Toscana virus nucleoprotein N; assay: ITC; n=0.52; ITC: 20 mM Tris pH 7.5, 150 mM NaCl, 8 C; 400 uM RNA titrated into 30 uM apo N; conditions: protein: recombinant; tags: N-terminal His6; chain copies: 6; single strand
[6] = biological target: T1, Toscana virus nucleoprotein N; assay: ITC; n=0.50; ITC: 20 mM Tris pH 7.5, 150 mM NaCl, 8 C; 400 uM RNA titrated into 30 uM apo N; conditions: protein: recombinant; tags: N-terminal His6; chain copies: 6; single strand
[7] = biological target: T1, Toscana virus nucleoprotein N; assay: ITC; n=0.43; ITC: 20 mM Tris pH 7.5, 150 mM NaCl, 8 C; 400 uM RNA titrated into 30 uM apo N; conditions: protein: recombinant; tags: N-terminal His6; chain copies: 6; single strand
[8] = biological target: T1, Toscana virus nucleoprotein N; assay: ITC; n=0.51; ITC: 20 mM Tris pH 7.5, 150 mM NaCl, 8 C; 400 uM RNA titrated into 30 uM apo N; conditions: protein: recombinant; tags: N-terminal His6; chain copies: 6; single strand

UUUUUUUUU (ssRNA) [oligo5 (polyU 9-mer)] showed a Kd [1] of 360 ± 40 nM.

For UGUGUUUCU (ssRNA) [oligo1 (reverted 3' consensus 9-mer)], the Kd (RVFV nucleoprotein N) was 400 ± 100 nM and the Kd [2] was 260 ± 20 nM.

B1: Toscana virus nucleoprotein N (natural protein)
chain: T1 sequence
notes: Hexameric ring in both crystal forms
For B1, the “stoichiometry N” value [3] was 6 and the “stoichiometry N” value [4] was 6.

In the case of UGUGUUU (ssRNA) [oligo7 (7-mer from oligo1)], the Kd [5] is reported as 2700 ± 200 nM.

Binder UGUGUU (ssRNA) [oligo8 (6-mer from oligo1)] has a Kd [6] of 8000 ± 900 nM.

For UAUGUUUCU (ssRNA) [oligo4 (G2A mutant of oligo1)], the Kd [2] was 290 ± 40 nM.

Binder UCUUUGUGU (ssRNA) [oligo2 (3' genomic consensus)] has a Kd [7] of 560 ± 70 nM.

UGUGUUUC (ssRNA) [oligo6 (8-mer from oligo1)] gave a Kd [8] of 710 ± 30 nM.
